Measurements: the DeepSol protein solubility set

Test: soluble on expression in E. coli; label from the status in PepcDB or PDB records

Sequence | soluble on expression in E. coli
MVKIVKAQFHTAGKLYDFGAGDLDLKPGDKIIVETERGRSIATVVTPPREYEEAHVPEGLKTAIRIAEPSDLASAARNDAREQEAHAFCLRKIKERGMEMKLVKVEYLFDGSKAIFYFTADGRVDFRELVKDLAHQFHTRIEMRQIGVRDESKMIGGIGICGRELCCSSFLREFEPVSVKMAKEQNLALNPTKISGQCGRLLCCLGYEYETYCSLKKCLPKCGKVVKCGSTEGEVIKQNIIEGTVFVKTDDDRIVELKGESIKPEDISERPKSPRREGGTREREKEPQSSSDNQRREKPRDREQKPGDDGEQRRERDTKKNQDQQRGERGNRDRRGGKGRDKDKKEPKLEHHHHHH | soluble
GSTPHLVNLNEDPLMSECLLYHIKDGVTRVGQVDMDIKLTGQFIREQHCLFRSIPQPDGEVVVTLEPCEGAETYVNGKLVTEPLVLKSGNRIVMGKNHVFRFNH | soluble
MSLSKVRISSKIEDCEEIINQYGGNYLSHLIYSGDKQFFTNENKTAFLMYRYKASSLVVLGDPLGDENAFDELLEAFYNYAEYLGYDVIFYQVTDQHMPLYHNFGNQFFKLGEEAIIDLTQFSTSGKKRRGFRATLNKFDELNISFEIIEPPFSTEFINELQHVSDLWLDNRQEMHFSVGEFNEEYLSKAPIGVMRNEENEVIAFCSLMPTYFNDAISVDLIRWLPELDLPLMDGLYLHMLLWSKEQGYTKFNMGMATLSNVGQLHYSYLRERLAGRVFEHFNGLYRFQGLRRYKSKYNPNWEPRFLVYRKDNSLWESLSKVMRVIRHKEGHHHHHH | soluble
LNDFAVRVAKSFSKVSEEKKSGSDIQGVFGIGSLENALYTASFAAGGGDYNNFLFNIKKGRADFSNFFNHNSKTFQSLRDIFNSFKPLIDQKGLISNKHFDTPVNNYAKFHQLAFYVSSTARFPYSFAKDNVKRLIIGKRELEVNPKSMFAIKKENGNNGNSNLLGKVALDNNKSIELYENNIPNGKTDAILIKN | soluble
FVVAFLCNWCSYACADLTGMSRIHYPTNIRVIRTMCSARINPEFVLEALKGGADGVLVAGCRMDECHYIHGNFDAKKRMDVLKEIIKEIGLDPKRLRTLWISAAEGERFSNTITEFVKELEEIGPIGSELKREYTATGLEEVAK | not soluble
MGSDKIHHHHHHMKRSGKVYIIGAGPGEEELITLKAIRKMKECTAVLYDRLVGQGILKYLNEKCEIYYCGKEPGCHYKTQDEINEMIIKLAKEGHIVGRIKGGDPYIFGRGGEEGLSLLKENIEFEVISGVTSPVAVLNYAGIPVTHRGIARSFHVFTAKTANDDSINFSAAAKIDGTLIFLMGYRQLNDITRKLIENGMDSKMPCAVVMRGTTSLQKKVIGNLSDIKEKCDNANMTSPCIIVVGKVVGFNQQLNWYEKKPLFGRNICITRSKNQSKTMREELLDLGAEVTEVHSIEIENTASNLEEYINKISEYDYIILTSVNAVEVLFDYLASKDYDVRKVRAKFAVIGNATKEALKKRGIVPEIVSRKHNGEGLFDEIRGYLKKDDKIFIPRSENSRKYIKEQLVSLGLSVDECFIYRTVPGKLYDKAAFENADTIVFTSPSTVKNMIALFGEKNIKKKSIIAIGPITGRELGKINAEYSTCSECSVDAIIRECLNSDK | not soluble
MGSDKIHHHHHHCDDNDGYSLGDIAVDWATVRVVGGDTYSLNADRWGTLWPAATAIPFYKPIDGQRVITYFNPLYDNYEGYDHAVKVEHNYNVLTKQVEDLTAENESEFGNDPVWVNKDMMWIGGGYLNVIFRQNLPVKEKHLVSLVRDMRATAAEGEDDGYIHLELRYKTYDDVTARQANGAVSFNLNSLDLTGKKGIKVKLNSVKDGETEVVFNLKGQSMPEEAKQVTLSDEVQIK | not soluble
MSKGEKMKIKVGVLGATGSVGQRFVQLLADHPMFELTALAASERSAGKKYKDACYWFQDRDIPENIKDMVVIPTDPKHEEFEDVDIVFSALPSDLAKKFEPEFAKEGKLIFSNASAYRMEEDVPLVIPEVNADHLELIEIQREKRGWDGAIITNPNCSTICAVITLKPIMDKFGLEAVFIATMQAVSGAGYNGVPSMAILDNLIPFIKNEEEKMQTESLKLLGTLKDGKVELANFKISASCNRVAVIDGHTESIFVKTKEGAEPEEIKEVMDKFDPLKDLNLPTYAKPIVIREEIDRPQPRLDRNEGNGMSIVVGRIRKDPIFDVKYTALEHNTIRGAAGASVLNAEYFVKKYI | soluble
MGSDKIHHHHHHMNTLLKQLKPYPFARLHEAMQGISAPEGMEAVPLHIGEPKHPTPKVITDALTASLHELEKYPLTAGLPELRQACANWLKRRYDGLTVDADNEILPVLGSREALFSFVQTVLNPVSDGIKPAIVSPNPFYQIYEGATLLGGGEIHFANCPAPSFNPDWRSISEEVWKRTKLVFVCSPNNPSGSVLDLDGWKEVFDLQDKYGFIIASDECYSEIYFDGNKPLGCLQAAAQLGRSRQKLLMFTSLSKRSNVPGLRSGFVAGDAELLKNFLLYRTYHGSAMSIPVQRASIAAWDDEQHVIDNRRLYQEKFERVIPILQQVFDVKLPDASFYIWLKVPDGDDLAFARNLWQKAAIQVLPGRFLARDTEQGNPGEGYVRIALVADVATCVKAAEDIVSLYR | not soluble
MAGDPMKIYFEAYGCTLNQGETALYVNKLLNEGNTLVSNPKEADLSIIGTCAVIKKTEDHMMARIQNLSRFGKVEVIGCLAPVKGKTMVEDNVSVIEKDRFRSFQEVIDEVSPVNAEIVSGIPINQGCTGKCNFCVSHIARGKLVSRKPEKIAGQIKILLQRGIKEIKITSLDTAAYGKDIGLRLPHLIRTITEIGDDFRLRVGMMEPKNTLEIVDDLISAYRSEKVFKFLHLPVQSGDDYVLEVMNREYTVSDFIRITGKFREAFPDSTLSTDLIIGYYAENDDSFEKTVQLIEKIRPEIINVTKFSPRELTADFEKRPKPTNILKEQDRMIADMHKEILQEKFSNLIGKTEFVLITENGKGRSMIGRDHAYRPIVIMDKTRKFEFHQVEITGFENTSLIGRIIDLEHHHHHH | not soluble
MAHHHHHHMLGEGLDIGFYAEDAYAAYVTDLATSLHLVPHCRNARGATLEVVFTGPFHDLSAYEEAVKQGKLVPYAELPWPVAEERGVQGVSGATLSVTLHGWIEKLNAARKVQLMEPLFPAAELGATIAEICVMGDAGNSAPCAFASTSPPCVAESAGTSNEKGTHPSLKPSRFRILGSLDFLLHLSSRDWLMGESSVPADSPSADGRDEANPNFAVGADDATRAAHACRDALEQRDDVALARNAVNTVIKMAQMAEEHPGEVGSVFVDAKERVEYIQFSAQ | not soluble
MTSSATSPTNGVDKNKNEEMVATPANCPYQLFNQEVVWNGKWIQTRQVGFKTHTGQVGVWQSVHRNTKPVEASADGVSIIARVRKQGKLYIVLVKQYRIPCGKLCLELPAGLIDAGETAQQAAIRELKEETGYVSGKVVMESKLCFLDPGLTDDSQCLVVVDVDGDAPENQNPVQVLDSTESIEVLLVEQSALMAYVTNLDSSSIVVESTLLAYAMGIQFATI | not soluble
MKEMTVSEIREVQLEMLAYIDKVARDNKIEYSLGGGSLLGAMRHKGFIPWDDDIDLMLERSQYERLMKALADANNSDFKLLHHSVEKNLWPFAKLYHTKSMYLSKTDRIHPWTGIFIDIFPLDRLPESAEERQRFFKKVHSAAANLMCTTYPNFASGSRKLYANARLILGLPRFIAYHGQAKKRAEIVDQVMETYNNQEVPYMGYTDSRYRLKEYFPREIFSEYEDVMFENIKTRKIKNEHAYLNQLYGGSYMELPPESKRESHSYYTWYWKEGLEHHHHHH | soluble
MDNNIDFIVTWVNGGDPDWLKKKNKYLPVNESNENMNSESRYRDFDIFKFWFRAVEKFAPWVHKIYLITDNQVPDWLDTRNSKLTVIDHRDIMDADWLPTFNSNAIELNAYKIKNLSEKFVLFNDDTILNSYVDKVDFFDENYPKDIYVESPIMATKGSVDHIMVNNVEIINEFFEKKNFYKKNLTKVFNPKIGIKLLRTLALLPSSKFAGFWNSHLPISYNKTTFETVWSNCEGKLVATSKNKFRTAYDVSHWLMRYWQLASGNYHLQNNIGKVYDLSSQNIDEVVTQLQRSHSKIICLNDNDELDDYEGVKGKLVTTLNEKFSEKSKFELLEHHHHHH | soluble
DGSFQGSVFVAVDIGERKRTEQALRENEQHLKNILDSIHAGILVIDPQDHRIVDANTFALDMIGAPKGLVVDRICHNFVCSAVQGACPITDLLENMDNSERRLLRFDGTSIPILKSVVPVTYQGRKLLIESFID | not soluble
GPGMASSPRPKMDAILTEAIKACFQKSGASVVAIRKYIIHKYPSLELERRGYLLKQALKRELNRGVIKQVKGKGASGSFVVVQKSRKT | soluble
MGSDKIHHHHHHMNESERKIVEEFQKETGINFKNEELLFRALCHSSYANEQNQAGRKDVESNEKLEFLGDAVLELFVCEILYKKYPEAEVGDLARVKSAAASEEVLAMVSRKMNLGKFLFLGKGEEKTGGRDRDSILADAFEALLAAIYLDQGYEKIKELFEQEFEFYIEKIMKGEMLFDYKTALQEIVQSEHKVPPEYILVRTEKNDGDRIFVVEVRVNGKTIATGKGRTKKEAEKEAARIAYEKLLKERS | soluble
DAGGGVGKELVDLKIIWNKTKHDVKVPLDSTGSELKQKIHSITGLPPAMQKVMYKGLVPEDKTLREIKVTSGAKIMVVGSTI | soluble
ELLCPAGTLKSMRYAFAYGADAVYAGQPRYSLRVRNNDFDHAQLAEGIAEAHALGKRFYVVVNIAPHNAKLKTFLRDLEPVVAMGPDALIMSDPGLIMLVRQHFPQMPIHLSVQANAVNWAAVQFWRQQGLTRVILSRELSLEEIEEIRQQVPDMELEVFVHGALCMAYSGRCLLSGYINRRDPNQGTCTNACRWEYKAVEGREDELGNVVAREPTLGRGAPTEQVFLLEEGNRPGEPMAAFEDEHGTYIMNSKDLRAVQHVERLARIGVHSLKIEGRTKSHYYVARTAQVYRQAIDDAAAGKPFDRGLMDTLESLAHRGYTEGFLRRHVHDEYQNYQHGHSLSERQQFVGELTGERRDGLAEVEVKNRFQRGDSVELMTPRGNLSLRVEDLRNAAGEAIEVAPGNGHVVYLALPEGLDLCYALLMRDLQPGQDTRQPQAERSGGCAGK | not soluble
MRLVQDYDQQPIMYDEVELLIQAVDQQPHPLLRLRDKAIIQLGLQGGFRRSELANLKVHYLSFMRDKLKVRLPFSKSNQQGLREWKSLPDSEPFAAYHAVKSWLNESQITDGHLFRSISRDGKTLRPYHVNDNSKPKSTFSRNSGFLNGDDIYRIIKQYCLKAGLPAQYYGAHSLRSGCVTQLHENNKDILYIMARTGHTDPRSLRHYLKPKEDLEHHHHHH | soluble
MEVNKKQLADIFGASIRTIQNWQEQGMPVLRGGGKGNEVLYDSAAVIKWYAERDAEIENEKLRREVEE | soluble
MHHHHHHSSGRENLYFQGMTVREKTRLEKFRQLLSSQNTDLDELRKCSWPGVPREVRPITWRLLSGYLPANTERRKLTLQRKREEYFGFIEQYYDSRNEEHHQDTYRQIHIDIPRTNPLIPLFQQPLVQEIFERILFIWAIRHPASGYVQGINDLVTPFFVVFLSEYVEEDVENFDVTNLSQDMLRSIEADSFWCMSKLLDGIQDNYTFAQPGIQKKVKALEELVSRIDEQVHNHFRRYEVEYLQFAFRWMNNLLMRELPLRCTIRLWDTYQSEPEGFSHFHLYVCAAFLIKWRKEILDEEDFQGLLMLLQNLPTIHWGNEEIGLLLAEAYRLKYMFADAPNHYRR | soluble
